Test results: patent US20140128578A1

Legend:
[1] = biological target: IgG4 contained in cell-free eukaryotic culture supernatant (Experiment 1, test 1); assay: affinity precipitation; 0.13 µmol Z-dimer with 0.065 µmol IgG4 in culture supernatant, 2 h; antibody left in supernatant measured by SEC UV signal and protein A chromatography
[2] = biological target: IgG1 contained in cell-free eukaryotic culture supernatant (Experiment 1, test 2); assay: affinity precipitation; 16.25 nmol Z-dimer with 16.25 nmol IgG1 in culture supernatant, 2 h; antibody left in supernatant measured by SEC UV signal and protein A chromatography
[3] = biological target: antibody in cell-free culture supernatant (Experiment 3); assay: affinity precipitation from cell-free culture supernatant; antibody to Z-dimer 1:2, 1 h; precipitate collected on a 0.22 µm filter

percent of antibody precipitated [1]: 99%
percent of antibody precipitated [2]: 76%
total yield of the antibody after the precipitation [3]: 98%
Substance: Z-dimer (dimerised protein Z; two Z-domain Cys tag monomers linked via a disulphide bridge) (designed binder)
